# According to patent publication US20120107323A1, “KINASE PROTEIN BINDING INHIBITORS” (University of Florida, priority 2009, published 2012):
# Target: IGF-1R of the transfected cells of Example 10 (confocal microscopy) (Homo sapiens (Human)) (UniProt P08069)
# Test: confocal microscopy, colocalization in cells transfected in the presence of the small molecule NSC 250435
substance,measurement,value
GFP-fused FAK-NT2 (a.a. 127-243),percentage of interaction,30%
